Paper PMC6138693, “Structural determinants of Rab11 activation by the guanine nucleotide exchange factor SH3BP5” (Nature Communications, 2018)
Changes are numbered by the printed parent chain. One block for each binder: values may come before it.

What was measured:
[1] = target: WT Rab11A (1–211, C-term his) (human) (UniProt P62491)
Rab11A K41P (human) = Rab11A K41P (human) (UniProt P62491)
Rab11A S40F (human) = Rab11A S40F (human) (UniProt P62491)
Rab11A L38P (human) = Rab11A L38P (human) (UniProt P62491)
Rab11A K13N (human) = Rab11A K13N (human) (UniProt P62491)
Sequence of Rab11A K13N (human) (P62491 whole entry K13N): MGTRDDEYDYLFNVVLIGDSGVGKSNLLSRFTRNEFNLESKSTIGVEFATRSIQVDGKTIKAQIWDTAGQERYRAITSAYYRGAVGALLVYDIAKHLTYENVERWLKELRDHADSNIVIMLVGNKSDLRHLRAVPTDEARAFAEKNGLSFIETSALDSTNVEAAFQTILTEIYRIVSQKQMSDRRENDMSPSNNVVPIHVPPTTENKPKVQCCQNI

Sequence of WT Rab11A (1–211, C-term his) (human) (P62491 1-211): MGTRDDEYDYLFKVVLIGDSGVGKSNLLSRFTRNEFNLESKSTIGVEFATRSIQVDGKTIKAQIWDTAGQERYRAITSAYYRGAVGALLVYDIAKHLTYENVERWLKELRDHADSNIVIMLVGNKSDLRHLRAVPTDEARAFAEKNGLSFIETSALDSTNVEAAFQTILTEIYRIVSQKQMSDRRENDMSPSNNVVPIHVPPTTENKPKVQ

GEF activity on Rab11A (Mant-GDP release), mutant (1000 nM) compared with WT SH3BP5 (52 nM) (fold decrease) [1]: > 100
B1: SH3BP5 (LNQ52AAA) (natural protein)
chain: MDAALKRSRSEEPAEILPPARDEEEEEEEGMEQGLEEEEEVDPRIQGELEKAAASTDDINRRETELEDARQKFRSVLVEATVKLDELVKKIGKAVEDSKPYWEARRVARQAQLEAQKATQDFQRATEVLRAAKETISLAEQRLLEDDKRQFDSAWQEMLNHATQRVMEAEQTKTRSELVHKETAARYNAAMGRMRQLEKKLKRAINKSKPYFELKAKYYVQLEQLKKTVDDLQAKLTLAKGEYKMALKNLEMISDEIHERRRSSAMGPRGCGVGAEGSSTSVEDLPGSKPEPDAISVASEAFEDDSCSNFVSEDDSETQSVSSFSSGPTSPSEMPDQFPAVVRPGSLDLPSPVSLSEFGMMFPVLGPRSECSGASSPECEVERGDRAEGAENKTSDKANNNRGLSSSSGSGGSSKSQSSTSPEGQALENRMKQLSLQCSKGRDGIIADIKMVQIG

SH3BP5-mediated GEF activity (Mant-GDP release, kcat/Km), mutant compared with WT Rab11A (fold decrease) (Rab11A K41P (human)): > 100
SH3BP5-mediated GEF activity (Mant-GDP release, kcat/Km), mutant compared with WT Rab11A (fold decrease) (Rab11A S40F (human)): > 100
SH3BP5-mediated GEF activity (Mant-GDP release, kcat/Km), mutant compared with WT Rab11A (fold decrease) (Rab11A L38P (human)): > 100
SH3BP5-mediated GEF activity (Mant-GDP release, kcat/Km), mutant compared with WT Rab11A (fold decrease) (Rab11A K13N (human)): > 100
B2: SH3BP5 (1–455), full-length (natural protein)
chain: B1 chain with A52L, A53N, A54Q

GEF activity on Rab11A (Mant-GDP release), mutant (1000 nM) compared with WT SH3BP5 (52 nM) (fold decrease) [1]: > 100
B3: SH3BP5 (LE250AK) (natural protein)
chain: B1 chain with A52L, A53N, A54Q, L250A, E251K
